From patent US7375083B2, “Pharmaceutical compositions for prevention of overdose or abuse” (Shire LLC, priority 2003, dated 2008)
Where a SMILES comes first, the peptide text is derived from it. The star is where a group is joined. X1 = COc1ccc2c3c1O[C@H]1C(O*)=CC[C@H]4[C@@H](C2)N(C)CC[C@]314

Experiment: Intravenous bioavailability of hydrocodone conjugates in rats, LC/MS/MS
Conditions: intravenous
[1] = 1 mg/kg dose, hydrocodone plus hydromorphone
[2] = 1 mg/kg dose, relative to hydrocodone bitartrate
[3] = 1 mg/kg hydrocodone base content
[4] = 1 mg/kg hydrocodone base content, 0 h
[5] = 1 mg/kg hydrocodone base content, 0.1 h
[6] = 1 mg/kg hydrocodone base content, 0.5 h
[7] = 1 mg/kg hydrocodone base content, 1.0 h
[8] = 1 mg/kg hydrocodone base content, 2.0 h
[9] = 1 mg/kg hydrocodone base content, 4.0 h

CC[C@H](C)[C@H](NC(=O)[C@H](Cc1ccccc1)NC(=O)[C@H](Cc1ccccc1)NC(=O)[C@H](Cc1ccc(O)cc1)NC(=O)[C@@H](N)Cc1ccc(O)cc1)C(=O)OC1=CC[C@H]2[C@H]3Cc4ccc(OC)c5c4[C@@]2(CCN3C)[C@H]1O5 [YYFFI[SEQ ID NO: 8]-HC, Tyr-Tyr-Phe-Phe-Ile[SEQ ID NO: 8]-(6-O)-Hydrocodone] (H-YYFFI-X1)
hydrocodone plus hydromorphone concentration (1 mg/kg dose, 5 Minutes): 171 ng/mL | hydrocodone plus hydromorphone concentration (1 mg/kg dose, 15 Minutes): 28 ng/mL | hydrocodone plus hydromorphone concentration (1 mg/kg dose, 30 Minutes): 22 ng/mL | hydrocodone plus hydromorphone concentration (1 mg/kg dose, 60 Minutes): 18 ng/mL | AUC (ng/ml h) 0-1 h [1]: 40 ng·h/mL | Cmax [1]: 171 ng/mL | Percent HC (AUC) [2]: 29% | Percent HC (Cmax) [2]: 72% | HC (hydrocodone) AUC, Percent relative to hydrocodone bitartrate [3]: 19% | HC (hydrocodone) Cmax [3]: 8.7 ng/mL | HC (hydrocodone) Cmax, Percent relative to hydrocodone bitartrate [3]: 20.2% | HC + HM AUC, Percent relative to hydrocodone bitartrate [3]: 36% | HC + HM Cmax [3]: 22.6 ng/mL | HC + HM Cmax, Percent relative to hydrocodone bitartrate [3]: 10.8% | HM (hydromorphone) AUC, Percent relative to hydrocodone bitartrate [3]: 33% | HM (hydromorphone) Cmax [3]: 31.3 ng/mL | HM (hydromorphone) Cmax, Percent relative to hydrocodone bitartrate [3]: 12.4% | Mean HC (hydrocodone) concentration [4]: 0 ng/mL | Mean HC + HM concentration [4]: 0 ng/mL | Mean HM (hydromorphone) concentration [4]: 0 ng/mL | Mean HC (hydrocodone) concentration [5]: 8.75 ng/mL | Mean HC + HM concentration [5]: 22.6 ng/mL | Mean HM (hydromorphone) concentration [5]: 31.3 ng/mL | Mean HC (hydrocodone) concentration [6]: 1.44 ng/mL | Mean HC + HM concentration [6]: 13.5 ng/mL | Mean HM (hydromorphone) concentration [6]: 14.9 ng/mL | Mean HC (hydrocodone) concentration [7]: 0.92 ng/mL | Mean HC + HM concentration [7]: 13.0 ng/mL | Mean HM (hydromorphone) concentration [7]: 13.9 ng/mL | Mean HC (hydrocodone) concentration [8]: 0.41 ng/mL | Mean HC + HM concentration [8]: 13.1 ng/mL | Mean HM (hydromorphone) concentration [8]: 13.5 ng/mL | Mean HC (hydrocodone) concentration [9]: 0.33 ng/mL | Mean HC + HM concentration [9]: 8.5 ng/mL | Mean HM (hydromorphone) concentration [9]: 8.8 ng/mL
